Data as given in PMC5903867, “Hexameric and pentameric complexes of the ExbBD energizer in the Ton system” (eLife, 2018).

B1: ExbD (natural protein, Escherichia coli, UniProt P0ABV2 1-141, looked up)
chain: MAMHLNENLDDNGEMHDINVTPFIDVMLVLLIIFMVAAPLATVDVKVNLPASTSTPQPRPEKPVYLSVKADNSMFIGNDPVTDETMITALNALTEGKKDTTIFFRADKTVDYETLMKVMDTLHQAGYLKIGLVGEETAKAK
notes: ExbD, Escherichia coli, full length, no tag; only the TM helix is modelled in the cryo-EM maps; The PDB entries hold only the TM helix (ExbDTM) of ExbD; also called ExbDTM (its TM helix as modelled); ExbD trimer; source: E. coli BL21 (DE3) Gold, pET-21b, co-expressed with ExbB-His6, co-purified in detergent (IMAC, SEC)
B2: ExbB (natural protein, Escherichia coli, UniProt P0ABU7 1-244, looked up)
chain: MGNNLMQTDLSVWGMYQHADIVVKCVMIGLILASVVTWAIFFSKSVEFFNQKRRLKREQQLLAEARSLNQANDIAADFGSKSLSLHLLNEAQNELELSEGSDDNEGIKERTSFRLERRVAAVGRQMGRGNGYLATIGAISPFVGLFGTVWGIMNSFIGIAQTQTTNLAVVAPGIAEALLATAIGLVAAIPAVVIYNVFARQIGGFKAMLGDVAAQVLLLQSRDLDLEASAAAHPVRVAQKLRAG
notes: ExbB, Escherichia coli, full length; inner membrane protein of the Ton system; residues about 10-234 resolved in the crystal; Forms hexamers and pentamers depending on pH, so copies is left open; also called ExbB hexamer; ExbB pentamer; source: E. coli BL21 (DE3) Gold, pET-21b, co-expressed with ExbD, purified from the membrane fraction in detergent (IMAC, SEC); not shown: His6, C-terminal, kept

Experiments:
ExbB [1] = molecular target: B2; experiment: cryo-EM structure; single particle, frozen-hydrated ExbBD complex in LMNG, 10 mM Tris-HCl pH 8.0; reference-free 2D classification and 3D reconstruction of the hexameric complex at 6.7 Å, no symmetry applied; settings: both partners purified
[2] = molecular target: the molecule itself; experiment: as above
ExbB [3] = molecular target: B2; experiment: cryo-EM structure; single particle, frozen-hydrated ExbBD complex in LMNG, 10 mM Na-citrate pH 5.4; reference-free 2D classification and 3D reconstruction of the pentameric complex at 7.1 Å, 5-fold symmetry enforced; settings: both partners purified
[4] = molecular target: the molecule itself; experiment: crystal structure; ExbBD complex purified in C8E4 or C10E5; crystals grown at pH 9.0 (0.1 M glycine, 0.15 M CaCl2, ~40% PEG 350 MME), 20°C; space group P2_(1), 2.8 Å, molecular replacement
[5] = molecular target: the molecule itself; experiment: negative-stain EM of 2D crystals; purified ExbBD complex (C8E4) reconstituted with E. coli total lipid extract by dialysis, 25 mM Na-citrate pH 5.4, 150 mM NaCl, 4°C; Fourier filtering of crystal patches
[6] = molecular target: the molecule itself; experiment: cryo-EM structure; single particle, frozen-hydrated ExbBD complex in LMNG, 10 mM Na-citrate pH 5.4; reference-free 2D classification and 3D reconstruction of the pentameric complex at 7.1 Å, 5-fold symmetry enforced

Binder	stoichiometry N (ExbB [1])	stoichiometry N [2]	stoichiometry N (ExbB [3])	stoichiometry N [4]	ratio of hexamer to pentamer (printed as pentamer:hexamer) [2]	stoichiometry N [5]	ratio of pentamer to hexamer [6]
B1	3 ExbD per ExbB hexamer	3 subunits	1 ExbD per ExbB pentamer	–	–	–	–
B2	–	–	–	6 subunits	3 hexamer per pentamer	5 subunits	3 pentamer per hexamer
